Results on six molecules are retold here after article doi:10.1101/2025.07.09.663943, “A multiplex extracellular interactome screening method employing high-avidity nanoparticles” (bioRxiv, 2025).

Common to all, as to experiment: Multiplex Interactome Assay (MPIA; bead-based, Luminex FLEXMAP 3D); runs D1-D4; baits ECD-hFc-ST3 on dimeric SC3 (SpyCatcher003-Cys) MagPlex beads, pooled; one prey a well: ECD-hFc-ST3 on 60-mer SC3-mi3 nanoparticles with GFP-V5-HA-ST3 adapter, 300 nM ECD where possible; 2 h at room temperature, 1% casein in 1x PBS; mouse anti-V5 and PE goat anti-mouse; read-out MFI; hit = seen in three of four runs

The target in one assay is PVR ECD-hFc-ST3 (human) (UniProt P15151).
The next assay has as its target WFIKKN2-hFc-ST3 (human) (UniProt Q8TEU8).
The next assay deals with T1, IL6R ECD-hFc-ST3 (human, UniProt P08887 20-365).
T1 construct: IL6R (interleukin-6 receptor subunit alpha), human, extracellular domain; Dimeric ECD-hFc-ST3 fusion behind the influenza HA signal peptide; prey on SC3-mi3 nanoparticles, bait on SC3 beads; source: Expi293, transfected, purified from supernatant (Ni-NTA / HisTrapFF); not shown: Fc (human IgG1, DAPA mutations), C-terminal, kept; FLAG, C-terminal, kept; SpyTag003, C-terminal, kept
T1 sequence (looked up): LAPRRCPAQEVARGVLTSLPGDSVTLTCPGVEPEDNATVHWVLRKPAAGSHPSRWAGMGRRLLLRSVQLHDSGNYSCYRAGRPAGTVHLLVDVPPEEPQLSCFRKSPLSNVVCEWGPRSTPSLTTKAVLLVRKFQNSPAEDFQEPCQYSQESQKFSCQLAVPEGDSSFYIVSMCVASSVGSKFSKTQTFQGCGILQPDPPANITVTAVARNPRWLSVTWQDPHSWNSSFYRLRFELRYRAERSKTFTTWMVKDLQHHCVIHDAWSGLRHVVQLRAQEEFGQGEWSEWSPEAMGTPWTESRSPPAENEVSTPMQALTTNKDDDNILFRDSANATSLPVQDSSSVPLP
The following applies: both partners purified.

Assay [1] deals with PuncE11 ECD-hFc-ST3 (human) (UniProt Q8TDY8).
For a further assay, the target named is T2, IGFBPL1-hFc-ST3 (human, UniProt Q8WX77 26-278).
T2 construct: Dimeric hFc-ST3 fusion behind the influenza HA signal peptide; prey on SC3-mi3 nanoparticles, bait on SC3 beads; source: Expi293, transfected, purified from supernatant (Ni-NTA / HisTrapFF); not shown: Fc (human IgG1, DAPA mutations), C-terminal, kept; FLAG, C-terminal, kept; SpyTag003, C-terminal, kept
T2 sequence (looked up): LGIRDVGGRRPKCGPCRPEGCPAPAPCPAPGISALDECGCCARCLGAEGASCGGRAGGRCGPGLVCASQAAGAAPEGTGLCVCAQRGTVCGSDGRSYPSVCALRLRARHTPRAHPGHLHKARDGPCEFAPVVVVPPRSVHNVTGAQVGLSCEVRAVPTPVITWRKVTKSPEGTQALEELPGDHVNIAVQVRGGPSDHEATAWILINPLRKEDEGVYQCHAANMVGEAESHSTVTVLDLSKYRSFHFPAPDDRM
The following applies: both partners purified.

For the next assay, the target named is T3, AXL ECD-hFc-ST3 (human, UniProt P30530 26-451).
T3 construct: AXL (tyrosine-protein kinase receptor UFO), human, extracellular domain; Dimeric ECD-hFc-ST3 fusion behind the influenza HA signal peptide; prey on SC3-mi3 nanoparticles, bait on SC3 beads; source: Expi293, transfected, purified from supernatant (Ni-NTA / HisTrapFF); not shown: Fc (human IgG1, DAPA mutations), C-terminal, kept; FLAG, C-terminal, kept; SpyTag003, C-terminal, kept
T3 sequence (looked up): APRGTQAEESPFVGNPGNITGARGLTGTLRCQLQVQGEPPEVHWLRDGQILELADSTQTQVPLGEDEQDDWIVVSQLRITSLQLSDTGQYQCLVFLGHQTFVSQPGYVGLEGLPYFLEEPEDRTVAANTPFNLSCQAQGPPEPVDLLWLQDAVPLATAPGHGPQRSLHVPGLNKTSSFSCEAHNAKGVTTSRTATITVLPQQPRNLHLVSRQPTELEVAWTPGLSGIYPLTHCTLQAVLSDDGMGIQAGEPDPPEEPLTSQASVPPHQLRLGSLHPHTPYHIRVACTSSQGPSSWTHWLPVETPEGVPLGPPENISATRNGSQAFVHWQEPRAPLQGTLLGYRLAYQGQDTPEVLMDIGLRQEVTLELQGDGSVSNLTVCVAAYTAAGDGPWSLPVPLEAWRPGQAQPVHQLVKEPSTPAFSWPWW
The following applies: both partners purified.

PVR ECD-hFc-ST3 (human), sequence (P15151 21-343): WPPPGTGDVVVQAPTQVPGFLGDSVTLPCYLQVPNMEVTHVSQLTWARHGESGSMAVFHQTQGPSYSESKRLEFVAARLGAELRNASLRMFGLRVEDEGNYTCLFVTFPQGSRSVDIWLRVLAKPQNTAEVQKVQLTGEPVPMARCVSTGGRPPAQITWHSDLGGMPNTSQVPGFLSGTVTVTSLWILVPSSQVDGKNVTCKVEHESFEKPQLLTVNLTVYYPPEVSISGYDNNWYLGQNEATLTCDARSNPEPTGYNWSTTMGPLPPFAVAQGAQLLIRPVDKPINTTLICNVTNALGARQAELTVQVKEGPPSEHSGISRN

Consider “KIR2DL5 ECD-hFc-ST3 (from UniProt Q8N109 22-238) (Fc fusion)”, for which, in the assay with PVR ECD-hFc-ST3 (human), the MFI was determined as 5360.

For the molecule “PuncE11 ECD-hFc-ST3 (from UniProt Q8TDY8 25-957) (Fc fusion)”, the MFI with WFIKKN2-hFc-ST3 (human) is more than 7000.

B1: TIGIT ECD-hFc-ST3 (Fc fusion, human, UniProt Q495A1 22-141, looked up)
chain: MMTGTIETTGNISAEKGGSIILQCHLSSTTAQVTQVNWEQQDQLLAICNADLGWHISPSFKDRVAPGPGLGLTLQSLTVNDTGEYFCIYHTYPDGTYTGRIFLEVLESSVAEHGARFQIP
notes: TIGIT, human, extracellular domain; Dimeric ECD-hFc-ST3 fusion behind the influenza HA signal peptide; prey on SC3-mi3 nanoparticles, bait on SC3 beads; source: Expi293, transfected, purified from supernatant (Ni-NTA / HisTrapFF); not shown: Fc (human IgG1, DAPA mutations), C-terminal, kept; FLAG, C-terminal, kept; SpyTag003, C-terminal, kept
Consider B1, for which the binding result with IL6R ECD-hFc-ST3 was “binds”.

B2: WFIKKN2-hFc-ST3 (Fc fusion)
chain: LPPIRYSHAGICPNDMNPNLWVDAQSTCRRECETDQECETYEKCCPNVCGTKSCVAARYMDVKGKKGPVGMPKEATCDHFMCLQQGSECDIWDGQPVCKCKDRCEKEPSFTCASDGLTYYNRCYMDAEACSKGITLAVVTCRYHFTWPNTSPPPPETTMHPTTASPETPELDMAAPALLNNPVHQSVTMGETVSFLCDVVGRPRPEITWEKQLEDRENVVMRPNHVRGNVVVTNIAQLVIYNAQLQDAGIYTCTARNVAGVLRADFPLSVVRGHQAAATSESSPNGTAFPAAECLKPPDSEDCGEEQTRWHFDAQANNCLTFTFGHCHRNLNHFETYEACMLACMSGPLAACSLPALQGPCKAYAPRWAYNSQTGQCQSFVYGGCEGNGNNFESREACEESCPFPRGNQRCRACKPRQKLVTSFCRSDFVILGRVSELTEEPDSGRALVTVDEVLKDEKMGLKFLGQEPLEVTLLHVDWACPCPNVTVSEMPLIIMGEVDGGMAMLRPDSFVGASSARRVRKLREVMHKKTCDVLKEFLGLH
B2: in assay [1], the MFI is more than 7000.

B3: DCC ECD-hFc-ST3 (Fc fusion, human, UniProt P43146 26-1097, looked up)
chain: HLQVTGFQIKAFTALRFLSEPSDAVTMRGGNVLLDCSAESDRGVPVIKWKKDGIHLALGMDERKQQLSNGSLLIQNILHSRHHKPDEGLYQCEASLGDSGSIISRTAKVAVAGPLRFLSQTESVTAFMGDTVLLKCEVIGEPMPTIHWQKNQQDLTPIPGDSRVVVLPSGALQISRLQPGDIGIYRCSARNPASSRTGNEAEVRILSDPGLHRQLYFLQRPSNVVAIEGKDAVLECCVSGYPPPSFTWLRGEEVIQLRSKKYSLLGGSNLLISNVTDDDSGMYTCVVTYKNENISASAELTVLVPPWFLNHPSNLYAYESMDIEFECTVSGKPVPTVNWMKNGDVVIPSDYFQIVGGSNLRILGVVKSDEGFYQCVAENEAGNAQTSAQLIVPKPAIPSSSVLPSAPRDVVPVLVSSRFVRLSWRPPAEAKGNIQTFTVFFSREGDNRERALNTTQPGSLQLTVGNLKPEAMYTFRVVAYNEWGPGESSQPIKVATQPELQVPGPVENLQAVSTSPTSILITWEPPAYANGPVQGYRLFCTEVSTGKEQNIEVDGLSYKLEGLKKFTEYSLRFLAYNRYGPGVSTDDITVVTLSDVPSAPPQNVSLEVVNSRSIKVSWLPPPSGTQNGFITGYKIRHRKTTRRGEMETLEPNNLWYLFTGLEKGSQYSFQVSAMTVNGTGPPSNWYTAETPENDLDESQVPDQPSSLHVRPQTNCIIMSWTPPLNPNIVVRGYIIGYGVGSPYAETVRVDSKQRYYSIERLESSSHYVISLKAFNNAGEGVPLYESATTRSITDPTDPVDYYPLLDDFPTSVPDLSTPMLPPVGVQAVALTHDAVRVSWADNSVPKNQKTSEVRLYTVRWRTSFSASAKYKSEDTTSLSYTATGLKPNTMYEFSVMVTKNRRSSTWSMTAHATTYEAAPTSAPKDLTVITREGKPRAVIVSWQPPLEANGKITAYILFYTLDKNIPIDDWIMETISGDRLTHQIMDLNLDTMYYFRIQARNSKGVGPLSDPILFRTLKVEHPDKMANDQGRHGDGGYWPVDTNLIDRSTLNEPPIGQMHPPHGSVTPQKNSN
notes: DCC (netrin receptor DCC), human, extracellular domain; Dimeric ECD-hFc-ST3 fusion behind the influenza HA signal peptide; prey on SC3-mi3 nanoparticles, bait on SC3 beads; source: Expi293, transfected, purified from supernatant (Ni-NTA / HisTrapFF); not shown: Fc (human IgG1, DAPA mutations), C-terminal, kept; FLAG, C-terminal, kept; SpyTag003, C-terminal, kept
Turning to B3, the MFI with IGFBPL1-hFc-ST3 was more than 7000.

B4: ILRL1 ECD-hFc-ST3 (Fc fusion, human, UniProt Q01638 19-328, looked up)
chain: KFSKQSWGLENEALIVRCPRQGKPSYTVDWYYSQTNKSIPTQERNRVFASGQLLKFLPAAVADSGIYTCIVRSPTFNRTGYANVTIYKKQSDCNVPDYLMYSTVSGSEKNSKIYCPTIDLYNWTAPLEWFKNCQALQGSRYRAHKSFLVIDNVMTEDAGDYTCKFIHNENGANYSVTATRSFTVKDEQGFSLFPVIGAPAQNEIKEVEIGKNANLTCSACFGKGTQFLAAVLWQLNGTKITDFGEPRIQQEEGQNQSFSNGLACLDMVLRIADVKEEDLLLQYDCLALNLHGLRRHTVRLSRKNPIDHHS
notes: The label ILRL1 is printed once only; Dimeric ECD-hFc-ST3 fusion behind the influenza HA signal peptide; prey on SC3-mi3 nanoparticles, bait on SC3 beads; source: Expi293, transfected, purified from supernatant (Ni-NTA / HisTrapFF); not shown: Fc (human IgG1, DAPA mutations), C-terminal, kept; FLAG, C-terminal, kept; SpyTag003, C-terminal, kept
Regarding B4, in the assay with AXL ECD-hFc-ST3, the MFI came out at 5780.
